{"source": "paper PMC4355281", "origin": "cited, not measured here", "target": "PKA RII (UniProt P13861)", "sequence (P13861 2-404)": "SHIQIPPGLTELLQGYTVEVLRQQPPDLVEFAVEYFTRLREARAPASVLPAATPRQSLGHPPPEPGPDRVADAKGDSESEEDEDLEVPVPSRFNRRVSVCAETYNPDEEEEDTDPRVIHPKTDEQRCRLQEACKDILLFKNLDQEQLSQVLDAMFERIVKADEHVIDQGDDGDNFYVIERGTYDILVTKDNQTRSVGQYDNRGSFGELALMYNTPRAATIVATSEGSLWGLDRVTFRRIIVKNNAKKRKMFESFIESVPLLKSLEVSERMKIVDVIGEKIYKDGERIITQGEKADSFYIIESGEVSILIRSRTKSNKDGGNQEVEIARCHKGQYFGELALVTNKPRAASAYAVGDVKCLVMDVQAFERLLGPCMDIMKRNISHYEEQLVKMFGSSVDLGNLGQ", "data": [{"substance": "mAKAPβ (from UniProt Q9WVC7)", "values": [{"measurement": "Kd", "result": 119, "unit": "nM"}]}]}
